Patent US5866392A, “Cellobiose oxidase, and enzymatic agent and a process for treating paper pulp” (priority 1992, dated 1999)
Read-outs that look alike come from different tables or passages of the source.

What was measured:
[1] = molecular target: T1, CBH II (cellulase) (Humicola insolens, UniProt Q9C1S9); assay: Coupled cellobiose oxidase/DCPIP assay for cellulases; format: biochemical; conditions: for Ki: coupled CBO/DCPIP assay, read-out: KL (inhibition constant)
T1 sequence (Q9C1S9 17-476): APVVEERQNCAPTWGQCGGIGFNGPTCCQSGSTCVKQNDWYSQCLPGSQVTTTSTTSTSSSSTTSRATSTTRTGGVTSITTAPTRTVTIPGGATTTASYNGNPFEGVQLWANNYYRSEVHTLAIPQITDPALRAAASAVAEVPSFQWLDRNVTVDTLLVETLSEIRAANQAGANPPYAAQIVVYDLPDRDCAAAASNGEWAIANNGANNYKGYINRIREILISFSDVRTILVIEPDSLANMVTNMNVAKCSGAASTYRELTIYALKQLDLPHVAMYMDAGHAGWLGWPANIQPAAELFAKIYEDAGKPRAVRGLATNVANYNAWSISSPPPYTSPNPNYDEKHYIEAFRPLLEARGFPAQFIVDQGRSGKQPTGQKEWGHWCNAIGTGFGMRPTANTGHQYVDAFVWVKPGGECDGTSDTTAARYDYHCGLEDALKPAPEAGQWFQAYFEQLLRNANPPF
Excerpt: (§1) The ability of the cellobiose oxidase to oxidize cellodextrins by means of an electron acceptor was utilized in an assay for cellulases. […] With this assay the kinetic constants for reduced cellodextrins of 5 different cellulases have been determined (table 2). […] The enzymes show very different substrate specificity, some of them requiring quite long substrates making it impossible to use the umbelliferyl cellobiosides and lactosides available for steady state kinetic. […] The inhibition constants were determined for two cellulases using the developed assay.

[2] = molecular target: Endo A (cellulase); assay: as above; format: biochemical; conditions: coupled CBO/DCPIP assay
Excerpt: The ability of the cellobiose oxidase to oxidize cellodextrins by means of an electron acceptor was utilized in an assay for cellulases. By using a substrate without a reducing end, such as a reduced cellodextrin, the reducing ends formed by the hydrolysis by the cellulase will be oxidized by the CBO. Simultaneously the coloured electron acceptor, dichlorophenolindophenol (DCPIP), is reduced by cellobiose oxidase to a colourless compound making it possible to follow the reaction spectrophotometrically at 600 nm DCPIP was chosen as electron acceptor because of its high extinction coefficient.
The inhibitors methyl 4-thiocellotrioside, methyl 4-thiocellotetraoside and methyl 4-thiocellopentaoside were synthesized at the laboratory in Grenoble^5. The inhibition constants were determined for two cellulases using the developed assay.

[3] = system: Endo (cellulase, first line of the table); assay: as above; format: biochemical; conditions: reduced cellodextrin substrate
Excerpt: (§2) The ability of the cellobiose oxidase to oxidize cellodextrins by means of an electron acceptor was utilized in an assay for cellulases. […] With this assay the kinetic constants for reduced cellodextrins of 5 different cellulases have been determined (table 2). […] The enzymes show very different substrate specificity, some of them requiring quite long substrates making it impossible to use the umbelliferyl cellobiosides and lactosides available for steady state kinetic.

[4] = system: EG A (cellulase); assay: as above; format: biochemical; conditions: reduced cellodextrin substrate
Excerpt: as §2

[5] = system: Endo B (cellulase); assay: as above; format: biochemical; conditions: reduced cellodextrin substrate
Excerpt: as §2

[6] = system: EG C (cellulase); assay: as above; format: biochemical; conditions: reduced cellodextrin substrate
Excerpt: as §2

[7] = substrate: OC[C@@H](O)[C@@H](O[C@@H]1O[C@H](CO)[C@@H](O[C@@H]2O[C@H](CO)[C@@H](O[C@@H]3O[C@H](CO)[C@@H](O[C@@H]4O[C@H](CO)[C@@H](O[C@@H]5O[C@H](CO)[C@@H](O)[C@H](O)[C@H]5O)[C@H](O)[C@H]4O)[C@H](O)[C@H]3O)[C@H](O)[C@H]2O)[C@H](O)[C@H]1O)[C@H](O)[C@@H](O)CO; assay: as above; format: biochemical; conditions: other: CBH II; reduced cellodextrin substrate
Excerpt: as §1

[8] = substrate: OC[C@@H](O)[C@@H](O[C@@H]1O[C@H](CO)[C@@H](O[C@@H]2O[C@H](CO)[C@@H](O[C@@H]3O[C@H](CO)[C@@H](O)[C@H](O)[C@H]3O)[C@H](O)[C@H]2O)[C@H](O)[C@H]1O)[C@H](O)[C@@H](O)CO; assay: as above; format: biochemical; conditions: other: CBH II; reduced cellodextrin substrate
Excerpt: as §1

[9] = substrate: OC[C@@H](O)[C@@H](O[C@@H]1O[C@H](CO)[C@@H](O[C@@H]2O[C@H](CO)[C@@H](O[C@@H]3O[C@H](CO)[C@@H](O[C@@H]4O[C@H](CO)[C@@H](O)[C@H](O)[C@H]4O)[C@H](O)[C@H]3O)[C@H](O)[C@H]2O)[C@H](O)[C@H]1O)[C@H](O)[C@@H](O)CO; assay: as above; format: biochemical; conditions: other: CBH II; reduced cellodextrin substrate
Excerpt: as §1

[10] = substrate: CN(C)c1ccc2nc3ccc(=[N+](C)C)cc-3sc2c1; assay: purified protein, by the assay type; conditions: other: electron acceptor + 225 μM cellobiose, 0.1M sodium phosphate buffer, pH 7.5, 40° C.
[11] = substrate: OC[C@H]1O[C@@H](O[C@H]2[C@H](O)[C@@H](O)[C@H](O[C@H]3[C@H](O)[C@@H](O)[C@H](O[C@H]4[C@H](O)[C@@H](O)C(O)O[C@@H]4CO)O[C@@H]3CO)O[C@@H]2CO)[C@H](O)[C@@H](O)[C@@H]1O; assay: purified protein, by the assay type; conditions: other: sugar + 90 μM DCPIP, 0.1M sodium phosphate buffer, pH 7.5, 40° C.
[12] = substrate: OC[C@H]1O[C@@H](O[C@H]2[C@H](O)[C@@H](O)C(O)O[C@@H]2CO)[C@H](O)[C@@H](O)[C@H]1O; assay: purified protein, by the assay type; conditions: other: sugar + 90 μM DCPIP, 0.1M sodium phosphate buffer, pH 7.5, 40° C.
Protocol: (§3) The measurements were performed in 0.1M sodium phosphate buffer at pH 7.5 at 40° C. 450 μl of a mixture of 100 μM of 2,6-Dichlorophenol-indophenol (DCPIP, Merck), 250 μM of cellobiose (Sigma) were mixed with 50 μl enzyme. Units of activity equals μmol cellobiose oxidized (DCPIP reduced) per min.
(§4) All measurements were performed in 0.1M sodium phosphate buffer, pH 7.5, at 40° C. […] The reactions were monitored for 400 s as changes in absorbance at the appropirate wavelength (see above). […] The catalytic constants (kcat) were expressed as mol of oxidized cellobiose/s/mol of enzyme. […] The kinetic constants were determined using Lineweaver-Burke plots and were the result of dual determinations.

[13] = substrate: CC(C)(C)C1=CC(=O)C(=O)C(C(C)(C)C)=C1; assay: purified protein, by the assay type; conditions: other: electron acceptor + 225 μM cellobiose, 0.1M sodium phosphate buffer, pH 7.5, 40° C.
[14] = substrate: O=C1C(Cl)=CC(=Nc2ccc(O)cc2)C=C1Cl; assay: purified protein, by the assay type; conditions: other: electron acceptor + 225 μM cellobiose, 0.1M sodium phosphate buffer, pH 7.5, 40° C.
Protocol: as §3, §4

[15] = substrate: OC[C@H]1O[C@@H](O[C@H]2[C@H](O)[C@@H](O)[C@H](O[C@H]3[C@H](O)[C@@H](O)C(O)O[C@@H]3CO)O[C@@H]2CO)[C@H](O)[C@@H](O)[C@@H]1O; assay: purified protein, by the assay type; conditions: other: sugar + 90 μM DCPIP, 0.1M sodium phosphate buffer, pH 7.5, 40° C.
[16] = substrate: OC[C@H]1O[C@@H](O[C@H]2[C@H](O)[C@@H](O)C(O)O[C@@H]2CO)[C@H](O)[C@@H](O)[C@@H]1O; assay: purified protein, by the assay type; conditions: other: sugar + 90 μM DCPIP, 0.1M sodium phosphate buffer, pH 7.5, 40° C.
Protocol: as §3, §4

[17] = substrate: OC[C@H]1O[C@H](O[C@H]2[C@H](O)[C@@H](O)[C@H](O)O[C@@H]2CO)[C@H](O)[C@@H](O)[C@@H]1O; assay: purified protein, by the assay type; conditions: other: sugar + 90 μM DCPIP, 0.1M sodium phosphate buffer, pH 7.5, 40° C.
Protocol: as §3, §4

[18] = read-out: KL (inhibition constant)
[19] = read-out: KLS (inhibition constant)

methyl 4-thiocellopentaoside [S-DP5]
Ki [1]: 15 µM
Ki [2, 18]: 35 µM

OC[C@@H](O)[C@@H](O[C@@H]1O[C@H](CO)[C@@H](O[C@@H]2O[C@H](CO)[C@@H](O)[C@H](O)[C@H]2O)[C@H](O)[C@H]1O)[C@H](O)[C@@H](O)CO [Red. DP3]
kcat ([1]; reduced cellodextrin substrate): 0 s⁻¹
Km [3]: 500 µM
kcat [3]: 0.24 s⁻¹
kcat [4]: 0 s⁻¹
kcat [5]: 0 s⁻¹
kcat [6]: 0 s⁻¹

methyl 4-thiocellotetraoside [S-DP4]
Ki [1]: 270 µM
Ki [2, 18]: 75 µM
Ki [2, 19]: 1000 µM

methyl 4-thiocellotrioside [S-DP3]
Ki [1]: 1400 µM
Ki [2, 18]: 300 µM
Ki [2, 19]: 2000 µM

B1: CBH II (cellulase) (Mycothermus thermophilus) (protein)
chain: APVVEERQNCAPTWGQCGGIGFNGPTCCQSGSTCVKQNDWYSQCLPGSQVTTTSTTSTSSSSTTSRATSTTRTGGVTSITTAPTRTVTIPGGATTTASYNGNPFEGVQLWANNYYRSEVHTLAIPQITDPALRAAASAVAEVPSFQWLDRNVTVDTLLVETLSEIRAANQAGANPPYAAQIVVYDLPDRDCAAAASNGEWAIANNGANNYKGYINRIREILISFSDVRTILVIEPDSLANMVTNMNVAKCSGAASTYRELTIYALKQLDLPHVAMYMDAGHAGWLGWPANIQPAAELFAKIYEDAGKPRAVRGLATNVANYNAWSISSPPPYTSPNPNYDEKHYIEAFRPLLEARGFPAQFIVDQGRSGKQPTGQKEWGHWCNAIGTGFGMRPTANTGHQYVDAFVWVKPGGECDGTSDTTAARYDYHCGLEDALKPAPEAGQWFQAYFEQLLRNANPPF
Km [7]: 4.7 µM
Km [8]: 490 µM
Km [9]: 3 µM

B2: Humicola insolens cellobiose oxidase (CBO, 92 kDa, pI 4.0) (Mycothermus thermophilus) (protein)
chain: QATGDAYTDSETGIKFQTWSPDPQFTFGLALPPDALEKDATEYIGLLRCTRADPSDPGYCGLSHGQVGQMTQSLLLVAWAYENQVYTSFRYATGYTLPGLYTGNAKLTQLSVNITDTSFELIYRCENCFSWEHEGSTGSSSTSQGYLVLGRASARRGVVGPTCPDTATFGFHDNGFGQWGVGLENAVSEQYSEWASLPGLTVETTCEGSGPGEAQCVPAPEETYDYIVVGAGAGGIPVADKLSEAGHKVLLIEKGPPSTGRWQGTMKPEWLEGTDLTRFDVPGLCNQIWVDSAGIACTDTDQMAGCVLGGGTAVNAGLWWKPIDLDWDENFPEGWHSQDLAAATERVFERIPGTWHPSMDGKLYRDEGYKVLSSGLAESGWKEVVANEVPNEKNRTFAHTHFMFAGGERNGPLATYLVSADARENFSLWTNTAVRRAVRTGGKVTGVELECLTDGGYSGIVKLNEGGGVIFSAGAFGSAKLLFRSGIGPEDQLRVVASSKDGEDFIDEKDWIKLPVGYNLIDHLNTDLILTHPDVVFYDFYEAWTTPIEADKQLYLEQRSGILAQAAPNIGPMMWEQVTPSDGITRQFQWTARVEGDSRFTNSSHAMTLSQYLGRGVVSRGRATITQGLVTTVAEHPYLHNAGDKEAVIQGIKNLIESLNVIPNITWVLPPPGSTVEEYVDSLLVSASARRSNHWMGTAKLGTDDGRYGGTSVVDLDTKVYGTDNLFVVDASIFPGMSTGNPSAMIVIAAEQAAERILKLRK
Km [10]: 18 µM
kcat [10]: 1.85 s⁻¹
Km [11]: 21 µM
Km [12]: 51 µM
kcat [12]: 10 s⁻¹
Km [13]: 132 µM
Km [14]: 26 µM
kcat [14]: 12 s⁻¹
Km [15]: 19 µM
Km [16]: 11 µM
kcat [16]: 10 s⁻¹
Km [17]: 11,000 μM
kcat [17]: 0.83 s⁻¹
